This passage reports Maximum mean fluorescence intensity results from US20240084003A1.

The target in the experiment is monkey CD22 on HEK293T-monkey CD22 cells (monkey). The experiment is described as follows: FACS, HEK293T-monkey CD22 cells.
monkey CD22 on HEK293T-monkey CD22 cells (monkey), sequence (chain, as listed by the source limits assumed): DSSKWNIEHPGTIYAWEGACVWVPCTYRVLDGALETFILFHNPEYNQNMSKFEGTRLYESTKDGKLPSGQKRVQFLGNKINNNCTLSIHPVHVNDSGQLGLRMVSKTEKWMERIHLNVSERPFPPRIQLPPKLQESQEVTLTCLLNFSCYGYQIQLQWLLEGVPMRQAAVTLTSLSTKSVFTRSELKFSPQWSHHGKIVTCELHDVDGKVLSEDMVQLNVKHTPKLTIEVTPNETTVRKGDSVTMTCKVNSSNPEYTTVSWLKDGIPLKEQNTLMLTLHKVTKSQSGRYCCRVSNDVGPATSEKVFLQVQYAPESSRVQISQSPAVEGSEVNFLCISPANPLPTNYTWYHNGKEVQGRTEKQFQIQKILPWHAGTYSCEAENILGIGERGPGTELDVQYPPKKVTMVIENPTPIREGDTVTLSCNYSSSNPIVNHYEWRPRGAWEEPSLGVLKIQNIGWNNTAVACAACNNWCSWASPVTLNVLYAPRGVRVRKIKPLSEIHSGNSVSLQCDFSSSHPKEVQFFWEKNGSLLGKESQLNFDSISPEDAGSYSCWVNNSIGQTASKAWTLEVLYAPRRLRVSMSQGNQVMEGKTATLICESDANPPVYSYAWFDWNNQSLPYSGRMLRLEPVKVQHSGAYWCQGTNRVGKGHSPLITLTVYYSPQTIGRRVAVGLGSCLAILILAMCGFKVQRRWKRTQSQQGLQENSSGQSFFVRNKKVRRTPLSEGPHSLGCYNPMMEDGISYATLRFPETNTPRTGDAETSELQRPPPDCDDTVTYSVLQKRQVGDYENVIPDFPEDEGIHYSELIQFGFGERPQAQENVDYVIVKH

B1: F1.280.1 (antibody, human IgG1, kappa, V domains shown)
VH: QIQLVQSGPELKKPGETVKISCKASGYTFTTYGMSWVKQTPGKGLTWMGWINTDSGVPTYADDFKRRFAFSLEASATTAYLQINNLKNEDTATYFCARGGPDYWGQGTTLTVSS
VL: DILLTQSPATLSVTPGETVSLSCRASQSIYKNLHWYHQKSHRSPRLLIKYASDSISGIPSRFTGSGSGTNFTLSINSVKPEDEGIYYCLQGYIVPLTFGAGTKLELKR
B1 displayed a Maximum mean fluorescence intensity of 1490 MFI.
